Measurements reported in publication doi:10.1101/2020.05.01.070730 (bioRxiv, 2020).

B1: GT-pDNA (GT 8 nt from 3'-OH) (dsDNA)
DNA 1: ATGTGAATCAGTATGGTTGCTATCTGC
DNA 2: ATTTCCTTCAGCAGATAGTAACCATACTGATTCACAT
B2: GT-dsDNA (GT 18 nt from 3' end) (dsDNA)
DNA 1: ATGTGAATCAGTATGGTTGCTATCTGCTGAAGGAAAT
DNA 2: ATTTCCTTCAGCAGATAGTAACCATACTGATTCACAT

What was measured:
MutS R842E = molecular target: T1, MutS R842E (Pseudomonas aeruginosa, UniProt Q9HY08 1-855, R842E); experiment: native PAGE shift
T1 sequence: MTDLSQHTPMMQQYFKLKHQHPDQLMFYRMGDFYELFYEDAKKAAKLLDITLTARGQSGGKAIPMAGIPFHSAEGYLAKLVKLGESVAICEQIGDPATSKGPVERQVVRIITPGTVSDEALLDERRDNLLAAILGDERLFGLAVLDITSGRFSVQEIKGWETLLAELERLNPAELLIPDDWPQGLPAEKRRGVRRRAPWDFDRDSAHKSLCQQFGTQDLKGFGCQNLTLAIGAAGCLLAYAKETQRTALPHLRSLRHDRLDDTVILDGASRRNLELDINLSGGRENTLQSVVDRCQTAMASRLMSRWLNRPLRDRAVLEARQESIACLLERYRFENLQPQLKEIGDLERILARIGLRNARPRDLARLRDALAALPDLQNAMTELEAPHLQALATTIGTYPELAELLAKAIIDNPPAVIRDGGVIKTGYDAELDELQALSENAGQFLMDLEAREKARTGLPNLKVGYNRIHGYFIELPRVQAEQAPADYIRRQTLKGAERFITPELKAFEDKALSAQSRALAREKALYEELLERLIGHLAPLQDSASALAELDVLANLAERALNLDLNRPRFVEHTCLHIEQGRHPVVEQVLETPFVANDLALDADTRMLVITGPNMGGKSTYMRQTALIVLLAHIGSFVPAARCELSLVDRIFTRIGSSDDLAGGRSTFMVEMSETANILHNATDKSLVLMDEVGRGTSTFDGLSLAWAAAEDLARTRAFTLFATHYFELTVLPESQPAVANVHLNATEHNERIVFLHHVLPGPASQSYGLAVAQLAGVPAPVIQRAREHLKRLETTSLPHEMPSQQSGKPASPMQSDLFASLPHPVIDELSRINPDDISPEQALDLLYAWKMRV

MutS = molecular target: T2, MutS (Pseudomonas aeruginosa, UniProt Q9HY08 1-855); experiment: SPR
T2 sequence: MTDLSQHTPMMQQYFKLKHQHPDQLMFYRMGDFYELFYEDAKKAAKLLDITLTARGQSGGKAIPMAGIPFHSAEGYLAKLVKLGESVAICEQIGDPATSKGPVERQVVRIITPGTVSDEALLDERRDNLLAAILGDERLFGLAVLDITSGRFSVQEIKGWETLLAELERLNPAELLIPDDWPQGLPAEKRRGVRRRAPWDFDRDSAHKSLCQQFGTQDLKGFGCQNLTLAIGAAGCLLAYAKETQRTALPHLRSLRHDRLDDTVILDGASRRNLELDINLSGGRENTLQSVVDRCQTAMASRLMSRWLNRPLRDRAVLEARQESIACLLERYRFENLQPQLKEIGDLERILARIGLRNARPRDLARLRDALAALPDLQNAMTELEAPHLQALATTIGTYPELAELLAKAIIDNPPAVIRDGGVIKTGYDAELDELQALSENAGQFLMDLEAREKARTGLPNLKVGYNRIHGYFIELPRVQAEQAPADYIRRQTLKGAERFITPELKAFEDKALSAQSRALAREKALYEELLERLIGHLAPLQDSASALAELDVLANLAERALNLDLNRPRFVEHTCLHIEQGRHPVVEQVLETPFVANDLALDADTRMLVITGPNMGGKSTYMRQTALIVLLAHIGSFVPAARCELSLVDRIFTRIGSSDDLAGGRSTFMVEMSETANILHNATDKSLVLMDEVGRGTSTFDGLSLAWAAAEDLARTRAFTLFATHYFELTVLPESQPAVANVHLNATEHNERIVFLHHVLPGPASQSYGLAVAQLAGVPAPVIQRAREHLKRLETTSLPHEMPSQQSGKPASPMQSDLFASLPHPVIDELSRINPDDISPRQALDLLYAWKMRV

MutS E. coli = molecular target: T3, MutS E. coli (Escherichia coli, UniProt P23909 1-853); experiment: native PAGE shift
T3 sequence: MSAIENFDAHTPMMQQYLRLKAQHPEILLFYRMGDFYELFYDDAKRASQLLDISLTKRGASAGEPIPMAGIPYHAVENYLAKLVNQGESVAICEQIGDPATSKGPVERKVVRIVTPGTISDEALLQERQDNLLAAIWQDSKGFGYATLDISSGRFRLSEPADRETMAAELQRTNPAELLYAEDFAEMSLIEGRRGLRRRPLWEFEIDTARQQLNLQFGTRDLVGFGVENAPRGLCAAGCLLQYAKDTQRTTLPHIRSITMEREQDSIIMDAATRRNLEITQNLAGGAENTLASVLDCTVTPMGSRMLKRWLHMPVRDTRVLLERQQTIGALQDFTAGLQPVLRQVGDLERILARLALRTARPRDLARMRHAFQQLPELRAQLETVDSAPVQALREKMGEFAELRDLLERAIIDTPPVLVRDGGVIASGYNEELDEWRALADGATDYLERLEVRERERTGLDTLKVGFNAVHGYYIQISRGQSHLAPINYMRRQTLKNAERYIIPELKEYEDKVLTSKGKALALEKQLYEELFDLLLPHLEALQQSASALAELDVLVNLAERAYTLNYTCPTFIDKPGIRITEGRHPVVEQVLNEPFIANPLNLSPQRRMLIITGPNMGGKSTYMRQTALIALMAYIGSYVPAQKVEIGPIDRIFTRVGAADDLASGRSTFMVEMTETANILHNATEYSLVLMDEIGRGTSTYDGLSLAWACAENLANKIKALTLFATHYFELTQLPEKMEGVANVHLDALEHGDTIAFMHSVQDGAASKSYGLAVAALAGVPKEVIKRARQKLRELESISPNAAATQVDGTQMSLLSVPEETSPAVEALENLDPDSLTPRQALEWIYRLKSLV

| Binder | binding result (MutS R842E) | Kd (MutS) [µM] | binding result (MutS E. coli) |
| --- | --- | --- | --- |
| B1 | binds | – | – |
| B2 | – | 0.118 ± 0.0089 | binds |
